From patent US20160326532A1 (MAYO FOUNDATION FOR MEDICAL EDUCATION AND RESEARCH, published 2016)

What was measured:
HIF-1α, endogenous = molecular target: T1, HIF-1α, endogenous (UniProt Q16665 1-826); test: co-immunoprecipitation of endogenous proteins from HEK 293T cell extracts (FIG. 8A)
T1 construct: also called HIF-1alpha; hypoxia-inducible factor 1 alpha
Description: To study endogenous WSB1/pVHL binding, cells were treated with or without 10 μM MG 132 (Sigma) for 2 hours. Cells were lysed by sonication in NETN buffer (20 mM Tris-HCl, pH 8.0, 100 mM NaCl, 1 mM EDTA, 0.5% Nonidet P-40) containing 50 mM b-glycerophosphate, 10 mM NaF, and […] each of pepstatin A and aprotinin, freshly supplemented with protease inhibitor cocktail (Roche). Prior to immunoprecipitation, protein A-bound Agarose beads were incubated overnight with pVHL antibody (Cell Signaling, #2738), WSB1 antibody (Abcam, ab68953; Sigma, HPA003293; Proteintech, 1166-1-AP), or HIF-1α antibody (Abcam, ab51608) in PBS with 5% BSA at 4° C. ab68953 was used for most experiments (HPA003293 for IHC). Extracts were added before immunoprecipitation with protein-A agarose at 4° C. for 4 hours. After three washings in binding buffer, co-purified proteins were analyzed by Western blotting.

HA-tagged HIF-1α = molecular target: T2, HA-tagged HIF-1α (UniProt Q16665 1-826); test: co-immunoprecipitation of exogenous proteins from HEK 293T cell extracts (FIG. 9A)
T2 construct: Plasmid from Addgene; also called exogenous HIF-1α; not shown: HA tag
T2 sequence (Q16665 whole entry): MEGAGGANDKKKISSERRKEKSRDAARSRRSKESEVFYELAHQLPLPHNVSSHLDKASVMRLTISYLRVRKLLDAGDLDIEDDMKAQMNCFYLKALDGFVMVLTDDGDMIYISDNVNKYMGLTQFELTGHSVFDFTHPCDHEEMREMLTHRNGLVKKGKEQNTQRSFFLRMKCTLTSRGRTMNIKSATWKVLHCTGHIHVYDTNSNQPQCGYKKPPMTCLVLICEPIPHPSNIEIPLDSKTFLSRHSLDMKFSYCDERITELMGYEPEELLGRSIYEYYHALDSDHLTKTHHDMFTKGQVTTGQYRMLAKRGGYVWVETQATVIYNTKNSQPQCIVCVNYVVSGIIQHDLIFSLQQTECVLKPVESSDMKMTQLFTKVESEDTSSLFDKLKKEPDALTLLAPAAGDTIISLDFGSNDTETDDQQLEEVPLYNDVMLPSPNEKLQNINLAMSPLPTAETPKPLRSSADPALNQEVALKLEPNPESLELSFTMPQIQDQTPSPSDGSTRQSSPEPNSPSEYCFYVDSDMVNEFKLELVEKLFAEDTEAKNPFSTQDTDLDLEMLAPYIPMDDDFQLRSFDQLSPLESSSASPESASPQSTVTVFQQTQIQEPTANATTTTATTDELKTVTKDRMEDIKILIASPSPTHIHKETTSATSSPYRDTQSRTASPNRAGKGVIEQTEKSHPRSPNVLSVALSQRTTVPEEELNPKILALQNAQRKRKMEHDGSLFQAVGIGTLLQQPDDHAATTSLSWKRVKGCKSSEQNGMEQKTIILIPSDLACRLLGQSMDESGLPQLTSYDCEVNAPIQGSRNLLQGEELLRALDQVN

T1 sequence (Q16665 whole entry): as above

B1: WD repeat and SOCS box-containing protein 1 (WSB1), endogenous (enzyme)
chain: MASFPPRVNEKEIVRLRTIGELLAPAAPFDKKCGRENWTVAFAPDGSYFAWSQGHRTVKLVPWSQCLQNFLLHGTKNVTNSSSLRLPRQNSDGGQKNKPREHIIDCGDIVWSLAFGSSVPEKQSRCVNIEWHRFRFGQDQLLLATGLNNGRIKIWDVYTGKLLLNLVDHTEVVRDLTFAPDGSLILVSASRDKTLRVWDLKDDGNMMKVLRGHQNWVYSCAFSPDSSMLCSVGASKAVFLWNMDKYTMIRKLEGHHHDVVACDFSPDGALLATASYDTRVYIWDPHNGDILMEFGHLFPPPTPIFAGGANDRWVRSVSFSHDGLHVASLADDKMVRFWRIDEDYPVQVAPLSNGLCCAFSTDGSVLAAGTHDGSVYFWATPRQVPSLQHLCRMSIRRVMPTQEVQELPIPSKLLEFLSYRI
notes: also called WBS1
B1: no binding (HIF-1α, endogenous).

B2: Myc-tagged WSB1 (WT) (enzyme)
chain: B1 chain
notes: Plasmid obtained from Dr. Cheol Yong Choi; also called Myc-WSB1; WSB1-Myc; not shown: Myc tag
B2: no binding (HA-tagged HIF-1α).
